Key:
human insulin receptor = human insulin receptor (Homo sapiens, UniProt P06213); experiment: Insulin receptor binding, SPA antibody capture assay
Method: SPA-PVT antibody-binding beads, anti-mouse reagent (Amersham Biosciences, Cat No. PRNQ0017) were mixed with 25 ml of binding buffer (100 mM HEPES pH 7.8; 100 mM sodium chloride, 10 mM MgSO4, 0.025% Tween-20). […] A total of 100 μl was then added and a dilution series is made from appropriate samples. To the dilution series was then added 100 μl of reagent mix and the samples were incubated for 16 hours while gently shaken. The phases were the then separated by centrifugation for 1 min and the plates counted in a Topcounter. The binding data were fitted using the nonlinear regression algorithm in the GraphPad Prism 2.01 (GraphPad Software, San Diego, Calif.).

[1] = Hydrophobicity (hydrophobic index k'rel) relative to human insulin by isocratic RP-HPLC; format: physicochemical
Method: The elution was monitored by following the UV absorption of the eluate at 214 nm. Void time, t0, was found by injecting 0.1 mM sodium nitrate.

[2] = Self-association by size exclusion chromatography (SEC), Kav; format: physicochemical
Method: The ability of the insulin derivatives of the invention to self-associate into large, but soluble complexes is analysed using SEC (size exclusion chromatography):
The following equation is used to determine the Kav for the derivative: Kav=(t−t0)/(Vt/(f+td−t0)) Where t is the retention time for a given peak, t0 is the retention time for Blue dextran, Vt is the total column volume (here 2.4 ml), f is the flow (here 0.04 ml/min), and td is the retention time for Blue dextran without the column in the system.

[3] = recombinant human insulin receptor-exon 11, SPA
[4] = LiChrosorb RP18, 40° C., pH 7.3, HI = 1

Sequence of human insulin receptor (P06213 28-746 isoform P06213-2 limits assumed): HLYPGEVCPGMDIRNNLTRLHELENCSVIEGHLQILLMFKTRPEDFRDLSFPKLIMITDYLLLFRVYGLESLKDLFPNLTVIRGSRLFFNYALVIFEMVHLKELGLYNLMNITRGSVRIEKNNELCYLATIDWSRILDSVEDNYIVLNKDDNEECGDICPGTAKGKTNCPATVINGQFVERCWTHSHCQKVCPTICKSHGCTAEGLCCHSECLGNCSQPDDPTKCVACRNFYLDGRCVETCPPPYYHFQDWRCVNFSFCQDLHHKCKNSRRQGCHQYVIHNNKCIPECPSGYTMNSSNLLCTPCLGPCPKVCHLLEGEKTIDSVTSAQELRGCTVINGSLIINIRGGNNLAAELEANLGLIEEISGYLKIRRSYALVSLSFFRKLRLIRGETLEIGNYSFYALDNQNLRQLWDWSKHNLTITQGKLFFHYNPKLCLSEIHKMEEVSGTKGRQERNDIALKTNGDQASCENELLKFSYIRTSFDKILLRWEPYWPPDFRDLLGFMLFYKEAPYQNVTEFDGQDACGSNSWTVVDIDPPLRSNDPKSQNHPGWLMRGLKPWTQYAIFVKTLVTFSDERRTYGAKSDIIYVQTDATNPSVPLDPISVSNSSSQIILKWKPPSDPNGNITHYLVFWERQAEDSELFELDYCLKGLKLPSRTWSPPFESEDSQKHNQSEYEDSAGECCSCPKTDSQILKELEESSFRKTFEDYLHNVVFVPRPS
Sequence of human insulin receptor (P06213 763-1382 partner limits assumed): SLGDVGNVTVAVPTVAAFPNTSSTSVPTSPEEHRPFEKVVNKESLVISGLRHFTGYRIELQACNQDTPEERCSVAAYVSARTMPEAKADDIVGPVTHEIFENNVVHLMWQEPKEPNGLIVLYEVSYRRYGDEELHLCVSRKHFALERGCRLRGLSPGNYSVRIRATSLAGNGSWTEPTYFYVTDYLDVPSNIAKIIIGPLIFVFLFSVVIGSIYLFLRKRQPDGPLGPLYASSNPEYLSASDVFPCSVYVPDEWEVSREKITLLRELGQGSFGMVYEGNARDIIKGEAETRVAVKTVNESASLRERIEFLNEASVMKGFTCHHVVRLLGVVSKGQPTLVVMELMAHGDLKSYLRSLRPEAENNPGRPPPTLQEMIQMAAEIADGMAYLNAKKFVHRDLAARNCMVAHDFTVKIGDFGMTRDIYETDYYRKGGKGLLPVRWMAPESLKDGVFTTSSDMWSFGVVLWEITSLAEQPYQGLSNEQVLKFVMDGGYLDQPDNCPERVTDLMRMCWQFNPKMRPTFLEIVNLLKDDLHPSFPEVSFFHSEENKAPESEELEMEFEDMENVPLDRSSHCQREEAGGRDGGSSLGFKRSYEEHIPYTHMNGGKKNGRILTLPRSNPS

## N^εB29-ω-carboxy-pentadecanoyl-γ-L-aspartylamide desB30 human insulin [Example 6]
Human insulin receptor; class symbol
  Insulin receptor affinity relative to human insulin: ++ (5-50%: ++)
Human insulin receptor; [3]
  Insulin receptor affinity relative to human insulin: 33%

## N^εB29-(3-(3-{4-[3-(7-carboxyheptanoylamino)propoxy]butoxy}propylcarbamoyl)-propionyl-γ-glutamylamide) desB30 human Insulin [Example 11]
[1]; [4]
  Hydrophobicity relative to human insulin: 0.435
[1]; class symbol, HI = 1
  Hydrophobicity relative to human insulin: +++ (k'rel < 1: +++)
Human insulin receptor; class symbol
  Insulin receptor affinity relative to human insulin: ++ (5-50%: ++)
Human insulin receptor; [3]
  Insulin receptor affinity relative to human insulin: 43%

## N^εB29-ω-carboxy-undecanoyl-δ-amino-butanoyl desB30 human insulin [Example 13]
[1]; [4]
  Hydrophobicity relative to human insulin: 0.552
[1]; class symbol, HI = 1
  Hydrophobicity relative to human insulin: +++ (k'rel < 1: +++)
Human insulin receptor; class symbol
  Insulin receptor affinity relative to human insulin: +++ (>50%: +++)
Human insulin receptor; [3]
  Insulin receptor affinity relative to human insulin: 59%
[2]; SEC Superose 6, 37° C., 0.6 mM derivative, 2.1 Zn2+/hexamer, 16 mM phenol, pH 7.8, one value per peak
  Self-association: Kav: 0.69
[2]; area of the peak whose Kav is in the cell above
  Self-association: % area of peak: (100%)
[2]; class symbol
  Self-association: Kav: + (Kav ≧ 0.55: +)

From patent US8933021B2, “Insulin derivative” (Novo Nordisk A/S, priority 2006, dated 2015)
